From article PMC5012862, “Structural characterization of encapsulated ferritin provides insight into iron storage in bacterial nanocompartments” (eLife, 2016) come the findings set out here.

Data set [1] concerns the target EncFtnsH H65A mutant (Rhodospirillum rubrum) (UniProt Q2RVS1). Nature of the data set: native MS; nESI, 100 mM ammonium acetate pH 8.0, about 5 uM protein; apo protein made in minimal medium, no Fe2+ added.
Data set [2] has the same target. Nature of the data set: crystal structure; hanging drop, 292 K, 0.14 M calcium acetate, 15% PEG 3350; cryoprotectant with 1 mM FeSO4; three decamers in the asymmetric unit; mutants crystallized in the same manner.
Data set [3] deals with the molecule itself. Nature of the data set: SEC; size-exclusion chromatography of the purified full-length EncFtn; column and buffer not told for this protein. A general note: In gel filtration, larger molecules generally elute earlier.
Data set [4] concerns the molecule itself. Nature of the data set: SEC; analytical gel filtration of EncFtnsH monomer at 700 uM, compared with 90 uM; no metal added.
Data set [5] concerns the molecule itself. Nature of the data set: SEC; preparative Superdex 200 16/60 after nickel affinity; 50 mM Tris-HCl pH 8.0, 150 mM NaCl; protein from E. coli grown in SeMet medium + 1 mM Fe(NH4)2(SO4)2, in MM, or in MM + 1 mM Fe(NH4)2(SO4)2.
Data set [6] deals with the molecule itself. The description is as above. The source holds these as a separate data set.
A further data set addresses Q2RVS1. Nature of the data set: SEC; analytical gel filtration, Superdex 200 PC 3.2/30 (Table 3 caption: 10/300 GL), 15 C, GF buffer; 90 uM EncFtnsH monomer or decamer fractions, alone or after 2 h at room temperature with one molar equivalent of metal salt.

Substitutions are numbered along the chain they refer to. In names and notes the source's numbering stands.

By stoichiometry N is commonly meant the number of molecules, sites or subunits per partner or assembly. As to “EncFtnsH H65A mutant (from UniProt Q2RVS1 1-96) (domain or fragment)”, the stoichiometry N in data set [1] was determined as 2; in data set [2], 10.

B1: Rhodospirillum rubrum EncFtn, full-length sequence (140 amino acids), purified alone (natural protein, UniProt Q2RVS1 1-140, looked up)
chain: MAQSSNSTHEPLEVLKEETVNRHRAIVSVMEELEAVDWYDQRVDASTDPELTAILAHNRDEEKEHAAMTLEWLRRNDAKWAEHLRTYLFTEGPITAIEAADTAGEGSGGDAAKGATAQGDGSLGIGSLKGEAALARPPRL
notes: primers are in Supplementary file 2; also called encapsulated ferritin; source: E. coli, recombinant, purified (SEC)
Regarding B1, in data set [3], the binding result is “binds”.

B2: EncFtnsH: truncated C-terminal hexahistidine-tagged variant of Rhodospirillum rubrum encapsulated ferritin (EncFtn, Rru_A0973), amino acids 1-96 plus the tag (domain or fragment, UniProt Q2RVS1 1-96, looked up)
chain: MAQSSNSTHEPLEVLKEETVNRHRAIVSVMEELEAVDWYDQRVDASTDPELTAILAHNRDEEKEHAAMTLEWLRRNDAKWAEHLRTYLFTEGPITA
notes: amino acids 1-96 of the 140-residue protein; Monomer predicted mass 13,194.53 Da with the tag; also called wild-type EncFtnsH; WT; source: for crystals anion exchange and SEC; not shown: His6, C-terminal, kept
As to B2, the “stoichiometry N” value in data set [4] worked out at 2. Besides, the “stoichiometry N” value in data set [5] turned out to be 10. The “decamer/monomer peak area ratio (cells grown in MM + 1 mM Fe(NH4)2(SO4)2)” value in data set [6] came out at 4.5. For the same molecule, in the data set with Q2RVS1, the decamer/monomer peak area ratio (decamer fractions, no metal added, day 1) was determined as 11.2; the decamer/monomer peak area ratio (monomer fractions, no metal added, day 1) came out at 0.1; the decamer/monomer peak area ratio (monomer fractions, no metal added, day 2) is 0.4; the decamer/monomer peak area ratio (monomer fractions, no metal added, day 3) was 0.3. For the same molecule, in the data set with Q2RVS1, the decamer/monomer peak area ratio (with Ca acetate) amounted to 0.2, the decamer/monomer peak area ratio (with CoCl2) was 1.2, the decamer/monomer peak area ratio (with Fe(NH4)2(SO4)2) was found to be 0.8 and the decamer/monomer peak area ratio (with FeCl3) was 0.1. Further, in the data set with Q2RVS1, the decamer/monomer peak area ratio (with FeSO4-HCl) was 1, the decamer/monomer peak area ratio (with MgSO4) is 0.2, the decamer/monomer peak area ratio (with MnCl2) worked out at 0.1 and the decamer/monomer peak area ratio (with ZnSO4) was determined as 2.3.

B3: EncFtnsH E32A mutant (domain or fragment, Rhodospirillum rubrum, UniProt Q2RVS1 1-96, looked up)
chain: B2 chain with E32A
notes: amino acids 1-96, with E32A; Single mutant of EncFtnsH; source: E. coli BL21(DE3) grown in MM or MM supplemented with iron; purified (Superdex 200 SEC); not shown: His6, C-terminal, kept
In the case of B3, the “stoichiometry N” value in data set [5] worked out at 10.

B4: EncFtnsH E62A mutant (domain or fragment, Rhodospirillum rubrum, UniProt Q2RVS1 1-96, looked up)
chain: B2 chain with E62A
notes: amino acids 1-96, with E62A; Single mutant of EncFtnsH; source: E. coli BL21(DE3) grown in MM or MM supplemented with iron; purified (Superdex 200 SEC); not shown: His6, C-terminal, kept
Turning to B4, the “stoichiometry N” value in data set [5] stood at 10.
